The values that follow come from US20240010682A1 (UNIVERSIT T BASEL, published 2024).

Positions count from the first letter of the chain named.

The target in assay [1] is fibrin (Fb) network formed from human fibrinogen by thrombin (human) (UniProt P02671). The experiment in a line: two-colour confocal fluorescence microscopy of Fb clots formed at 22 C, Coloc2 in ImageJ.
The target is the same in assay [2]. The experiment in a line: two-colour confocal fluorescence microscopy of Fb clots formed at 37 C, Coloc2 in ImageJ.
In assay [3] the target is T1, fibrin (Fb) network formed from human fibrinogen by thrombin (human, UniProt P02671 36-629; P02675 45-491; P02679 27-437, limits assumed).
T1 construct: Human fibrinogen (FIB 3; depleted of plasminogen, fibronectin and von Willebrand Factor), spiked with 1% AlexaFluor 488-labelled fibrinogen and clotted with thrombin and CaCl2; In the imaging experiments it is a cross-linked gel, not a soluble protein; also called Fb clot; Fb fibers
T1 sequence (looked up) 1: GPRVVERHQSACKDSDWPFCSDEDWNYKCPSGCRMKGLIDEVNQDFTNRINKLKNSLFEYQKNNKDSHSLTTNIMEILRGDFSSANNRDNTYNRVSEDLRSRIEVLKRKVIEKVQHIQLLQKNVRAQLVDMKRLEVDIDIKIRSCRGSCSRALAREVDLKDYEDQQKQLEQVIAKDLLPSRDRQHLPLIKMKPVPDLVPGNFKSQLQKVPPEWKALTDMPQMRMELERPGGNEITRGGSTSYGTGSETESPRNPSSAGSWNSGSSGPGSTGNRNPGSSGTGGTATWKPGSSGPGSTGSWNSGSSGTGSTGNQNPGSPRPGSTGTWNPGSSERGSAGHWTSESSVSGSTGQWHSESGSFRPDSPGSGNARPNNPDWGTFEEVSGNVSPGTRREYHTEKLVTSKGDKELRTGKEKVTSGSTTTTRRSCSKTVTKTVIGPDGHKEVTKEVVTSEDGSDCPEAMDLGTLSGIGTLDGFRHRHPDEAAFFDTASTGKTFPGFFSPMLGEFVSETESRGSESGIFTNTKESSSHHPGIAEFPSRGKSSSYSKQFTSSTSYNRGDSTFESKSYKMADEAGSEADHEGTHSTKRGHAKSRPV
T1 sequence (looked up) 2: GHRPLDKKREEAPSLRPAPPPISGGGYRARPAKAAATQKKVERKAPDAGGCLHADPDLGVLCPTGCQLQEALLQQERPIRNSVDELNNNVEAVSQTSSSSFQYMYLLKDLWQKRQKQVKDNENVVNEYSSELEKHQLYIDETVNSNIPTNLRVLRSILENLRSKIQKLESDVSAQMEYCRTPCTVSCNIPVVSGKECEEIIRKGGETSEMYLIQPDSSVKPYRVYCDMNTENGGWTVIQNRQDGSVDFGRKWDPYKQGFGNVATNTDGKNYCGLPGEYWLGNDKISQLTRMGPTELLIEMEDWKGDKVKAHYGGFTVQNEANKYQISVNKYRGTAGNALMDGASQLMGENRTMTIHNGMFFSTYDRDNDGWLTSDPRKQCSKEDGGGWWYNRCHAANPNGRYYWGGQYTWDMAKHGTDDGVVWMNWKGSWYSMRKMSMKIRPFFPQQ
T1 sequence (looked up) 3: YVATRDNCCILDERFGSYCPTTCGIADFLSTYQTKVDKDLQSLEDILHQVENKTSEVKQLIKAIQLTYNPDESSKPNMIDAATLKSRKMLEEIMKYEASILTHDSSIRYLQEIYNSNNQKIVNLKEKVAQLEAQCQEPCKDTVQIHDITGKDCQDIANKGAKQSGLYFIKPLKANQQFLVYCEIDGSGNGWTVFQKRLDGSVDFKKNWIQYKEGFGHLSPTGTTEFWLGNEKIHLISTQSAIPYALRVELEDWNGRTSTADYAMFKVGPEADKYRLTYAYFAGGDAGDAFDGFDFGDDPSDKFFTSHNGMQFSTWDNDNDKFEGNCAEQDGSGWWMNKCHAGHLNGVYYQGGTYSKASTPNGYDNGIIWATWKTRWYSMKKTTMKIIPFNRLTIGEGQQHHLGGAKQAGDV
Briefly: two-colour confocal fluorescence microscopy of Fb clots formed at 22 C, colocalisation (Coloc2). The source says: The inventors N-terminally labelled hELPs and conELPs with Atto647-N-hydroxysuccinimide (red channel) and confirmed they were still cross-linked by FXIIIa. Fluorescent-hELPs (f-hELPs) or fluorescent-conELPs (f-conELPs) were then integrated into Fb clots spiked with 1% AlexaFluor 488-labelled fibrinogen (Fg-488, green channel). The inventors used two color confocal fluorescence microscopy to characterize hELP and Fb network morphology, degree of hELP and Fb colocalization, and the influence of hELP phase transition on clot architecture. […] The inventors observed little to no fluorescence intensity in the red channel when only HEPES buffer or f-conELP were added during formation of Fb networks (FIG. 3a, left, HEPES & conELP).
To quantify hELP and Fb spatial colocalization, the inventors used Coloc2 in ImageJ to calculate Pearson's correlation coefficients (PCC) (J. Adler, I. Parmryd, Cytom. Part A 2010, 77, 733). For f-hELP-Fb clots at 22° C., a PCC between f-hELP and Fb channels of 0.69±0.1 indicated high spatial correlation. For f-conELP-Fb clots, a PCC value of 0.05±0.09 indicated no spatial correlation (FIG. 3b).

B1: fluorescent hELP (f-hELP), hELP labelled with Atto647-N-hydroxysuccinimide (protein)
chain: MGHGVGVPGVGVPGAGVPGVGVPGVGVPGVGVPGVGVPGVGVPGVGVPGVGVPGEGVPGAGSGDQMMLPWPAVALSGVPGVGVPGVGVPGAGVPGVGVPGVGVPGVGVPGVGVPGVGVPGVGVPGVGVPGEGVPGAGSGDQMMLPWPAVALSGVPGVGVPGVGVPGAGVPGVGVPGVGVPGVGVPGVGVPGVGVPGVGVPGVGVPGEGVPGAGSGDQMMLPWPAVALSGVPGVGVPGVGVPGAGVPGVGVPGVGVPGVGVPGVGVPGVGVPGVGVPGVGVPGEGVPGAGSGDQMMLPWPAVALSGVPGVGVPGVGVPGAGVPGVGVPGVGVPGVGVPGVGVPGVGVPGVGVPGVGVPGEGVPGAGVPGVGVPGVGVPGAGVPGVGVPGVGVPGVGVPGVGVPGVGVPGVGVPGVGVPGEGVPGAGVPGVGVPGVGVPGAGVPGVGVPGVGVPGVGVPGVGVPGVGVPGVGVPGVGVPGEGVPGAGVPGVGVPGVGVPGAGVPGVGVPGVGVPGVGVPGVGVPGVGVPGVGVPGVGVPGEGVPGAGVPGVGVPGVGVPGAGVPGVGVPGVGVPGVGVPGVGVPGVGVPGVGVPGVGVPGEGVPGAGSGGSKGSSGVPGVGVPGVGVPGAGVPGVGVPGVGVPGVGVPGVGVPGVGVPGVGVPGVGVPGEGVPGAGSGGSKGSSGVPGVGVPGVGVPGAGVPGVGVPGVGVPGVGVPGVGVPGVGVPGVGVPGVGVPGEGVPGAGSGGSKGSSGVPGVGVPGVGVPGAGVPGVGVPGVGVPGVGVPGVGVPGVGVPGVGVPGVGVPGEGVPGAGSGGSKGSSGVPGWLDSLEFIA
modifications: chain 1 pos 1: N-terminal alpha-amine preferentially labelled with Atto647-NHS dye (about 0.95 dye per ELP), written M; minor labelling of K-block lysines is possible.
With B1, the Pearson's correlation coefficient (PCC) between f-hELP and Fb channels in assay [1] came to 0.69. The Pearson's correlation coefficient (PCC) between ELP and Fb channels in assay [2] is 0.163.

B2: fluorescent conELP (f-conELP), conELP labelled with Atto647-N-hydroxysuccinimide (other)
chain: B1 chain with Q65G, Q141G, Q217G, Q293G, K610G, K679G, K748G, K817G
modifications: chain 1 pos 1: N-terminal alpha-amine labelled with Atto647-NHS dye (about 0.95 dye per ELP), written M.
notes: also called f-conELPs; fluorescent-conELPs
In the case of B2, the binding result in assay [3] is listed as “no binding (tested: 30 µM f-conELP)”.
